# Reference: patent publication US20190300590A1 (PROTAGONIST THERAPEUTICS, published 2019)
# *1 amine or outer side, *2 acyl side, *3 side chain or, on linkers, in order; H or OH if unused. Bridges are numbered along the chain shown (N, C = ends). Primed or numbered codes have the meaning given here. [ ]: non-standard residue; d: D form. Phe(4-OMe)(3) = O-methyl-L-tyrosine (4-methoxy-L-phenylalanine), COc1ccc(C[C@H](N[*:1])C(=O)[*:2])cc1; Phe(4-OMe) = 4-methoxy-L-phenylalanine (O-methyl-L-tyrosine), COc1ccc(C[C@H](N[*:1])C(=O)[*:2])cc1; Phe(4-CONH2) = NC(=O)c1ccc(C[C@H](N)C(=O)O)cc1; Abu(4-yl) = O=C([C@H](CC[*:3])N[*:1])[*:2]; 2Nal = N[C@@H](Cc1ccc2ccccc2c1)C(=O)O; AEF = NCCOc1ccc(C[C@H](N)C(=O)O)cc1; Cha = N[C@@H](CC1CCCCC1)C(=O)O; αMeK = C[C@](N)(CCCCN)C(=O)O; Abu = CC[C@H](N)C(=O)O
# T1: IL23R_huFC (human, UniProt Q5VWK5 24-353)
# T1 sequence (looked up): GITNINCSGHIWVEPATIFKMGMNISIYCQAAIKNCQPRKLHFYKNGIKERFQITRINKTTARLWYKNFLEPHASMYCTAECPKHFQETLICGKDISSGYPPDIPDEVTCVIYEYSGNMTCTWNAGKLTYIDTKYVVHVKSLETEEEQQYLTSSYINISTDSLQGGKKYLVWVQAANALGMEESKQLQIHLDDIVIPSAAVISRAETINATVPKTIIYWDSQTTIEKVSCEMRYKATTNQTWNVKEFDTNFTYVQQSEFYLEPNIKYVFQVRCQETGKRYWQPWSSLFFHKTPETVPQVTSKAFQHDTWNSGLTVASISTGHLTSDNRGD
# T2: IL-23R on human cells (IL-23R-expressing DB cells; human NK cells) (human, UniProt Q5VWK5 24-629)
# T2 sequence (looked up): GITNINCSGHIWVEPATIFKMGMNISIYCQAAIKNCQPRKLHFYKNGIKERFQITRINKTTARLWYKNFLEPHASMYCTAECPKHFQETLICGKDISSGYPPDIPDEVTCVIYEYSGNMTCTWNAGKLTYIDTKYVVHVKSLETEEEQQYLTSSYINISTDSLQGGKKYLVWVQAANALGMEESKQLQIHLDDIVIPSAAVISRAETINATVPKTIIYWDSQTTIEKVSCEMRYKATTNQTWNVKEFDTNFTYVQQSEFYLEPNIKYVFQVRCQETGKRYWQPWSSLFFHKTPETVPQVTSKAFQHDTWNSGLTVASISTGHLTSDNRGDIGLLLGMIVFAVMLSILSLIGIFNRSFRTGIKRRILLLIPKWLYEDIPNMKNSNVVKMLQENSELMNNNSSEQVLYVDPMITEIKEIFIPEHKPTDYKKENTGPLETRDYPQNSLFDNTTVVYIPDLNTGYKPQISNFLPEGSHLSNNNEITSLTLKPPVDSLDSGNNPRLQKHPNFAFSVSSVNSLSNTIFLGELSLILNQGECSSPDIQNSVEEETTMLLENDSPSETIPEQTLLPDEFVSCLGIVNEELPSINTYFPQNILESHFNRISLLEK
# B1: Ac-Leu-Cyclo-[[Abu]-QTWQC]-[Phe[4-(2-aminoethoxy)]]-[2-Nal]-[α-MeLys]-ENN-NH2 (peptide)
# peptide: Ac-L[Abu(4-yl)]QTWQC[AEF][2Nal][αMeK]ENN-NH2
# modifications: thioether 2-7
# SMILES: CC(=O)N[C@@H](CC(C)C)C(=O)N[C@H]1CCSC[C@@H](C(=O)N[C@@H](Cc2ccc(OCCN)cc2)C(=O)N[C@@H](Cc2ccc3ccccc3c2)C(=O)N[C@@](C)(CCCCN)C(=O)N[C@@H](CCC(=O)O)C(=O)N[C@@H](CC(N)=O)C(=O)N[C@@H](CC(N)=O)C(N)=O)NC(=O)[C@H](CCC(N)=O)NC(=O)[C@H](Cc2c[nH]c3ccccc23)NC(=O)[C@H]([C@@H](C)O)NC(=O)[C@H](CCC(N)=O)NC1=O
# Molecular target: Rat IL-23R_huFC (rat)
# Test: rat ELISA vs IL-23
row,IC50 [nM],Binder
1,< 10,B1

# Molecular target: T1, IL23R_huFC
# Test: human ELISA vs IL-23
row,IC50 [nM],Binder
1,< 10,B1

# Molecular target: T2, IL-23R on human cells …
# Test: cell-based or functional assay
row,pStat3 HTRF IC50 [nM],Binder
1,< 10,Ac-[Abu]QTWQC[Phe(4-OMe)][2Nal][Cha]K(Ac)NG-NH2 (thioether 1-6) [Ac-Cyclo-[[Abu]-QTWQC]-[Phe(4-OMe)]-[2-Nal]-[Cha]-[Lys(Ac)]-NG-NH2]
2,< 10,Ac-[Abu]QTWQC[Phe(4-OMe)(3)][2Nal][αMeK]K(Ac)NGE-NH2 (thioether 1-6) [Ac-Cyclo-[[Abu]-QTWQC]-[Phe(4-OMe)]-[2-Nal][α-MeLys]-[Lys(Ac)]-NGE-NH2]
3,< 10,Ac-[Abu]QTWQC[Phe(4-OMe)][2Nal][αMeK]VNG-NH2 (thioether 1-6) [Ac-Cyclo-[[Abu]-QTWQC]-[Phe(4-OMe)]-[2-Nal]-[α-MeLys]-VNG-NH2]
4,< 10,Ac-[Abu]QTWQC[Phe(4-OMe)(3)][2Nal][αMeK]K(Ac)QG-NH2 (thioether 1-6) [Ac-Cyclo-[[Abu]-QTWQC]-[Phe(4-OMe)]-[2-Nal][α-MeLys]-[Lys(Ac)]-QG-NH2]
5,< 10,B1
6,< 10,XQTWQCFWXENG (as bracketed in name; thioether cyclo) [Ac-Cyclo-[[Abu]-QTWQC]-[Phe(4-OMe)]-W-[α-MeOrn]-ENG-NH2]

# Molecular target: Rat IL-23R_huFC (rat)
# Test: rat ELISA vs IL-23
# Remark: another data set of the same source
row,IC50 [nM],Binder
1,25 to 100,Ac-[Abu]QTWQC[Phe(4-CONH2)][2Nal][αMeK]K(Ac)NG-NH2 (thioether 1-6) [Ac-Cyclo-[[Abu]-QTWQC]-[Phe(4-CONH2)]-[2-Nal][α-MeLys]-[Lys(Ac)]NG-NH2]
2,25 to 100,XQTWQCFXXENG (as bracketed in name; thioether cyclo) [Ac-Cyclo-[[Abu]-QTWQC]-[Phe(4-OMe)]-[2-Nal]-[α-MeOrn]-ENG-NH2]
3,25 to 100,Ac-[Abu]QTWQC[Phe(4-OMe)][2Nal][Cha]K(Ac)NG-NH2 (thioether 1-6) [Ac-Cyclo-[[Abu]-QTWQC]-[Phe(4-OMe)]-[2-Nal]-[Cha]-[Lys(Ac)]-NG-NH2]
4,25 to 100,Ac-[Abu]QTWQC[Phe(4-OMe)(3)][2Nal][αMeK]K(Ac)NGE-NH2 (thioether 1-6) [Ac-Cyclo-[[Abu]-QTWQC]-[Phe(4-OMe)]-[2-Nal][α-MeLys]-[Lys(Ac)]-NGE-NH2]
5,25 to 100,Ac-[Abu]QTWQC[Phe(4-OMe)][2Nal][αMeK]VNG-NH2 (thioether 1-6) [Ac-Cyclo-[[Abu]-QTWQC]-[Phe(4-OMe)]-[2-Nal]-[α-MeLys]-VNG-NH2]
6,25 to 100,Ac-[Abu]QTWQC[Phe(4-OMe)(3)][2Nal][αMeK]K(Ac)QG-NH2 (thioether 1-6) [Ac-Cyclo-[[Abu]-QTWQC]-[Phe(4-OMe)]-[2-Nal][α-MeLys]-[Lys(Ac)]-QG-NH2]
7,25 to 100,XQTWQCFWXENG (as bracketed in name; thioether cyclo) [Ac-Cyclo-[[Abu]-QTWQC]-[Phe(4-OMe)]-W-[α-MeOrn]-ENG-NH2]

# Molecular target: T1, IL23R_huFC
# Test: human ELISA vs IL-23
# Remark: another data set of the same source
row,IC50 [nM],Binder
1,25 to 100,Ac-[Abu]QTWQC[Phe(4-OMe)][2Nal][Cha]K(Ac)NG-NH2 (thioether 1-6) [Ac-Cyclo-[[Abu]-QTWQC]-[Phe(4-OMe)]-[2-Nal]-[Cha]-[Lys(Ac)]-NG-NH2]
2,25 to 100,Ac-[Abu]QTWQC[Phe(4-OMe)(3)][2Nal][αMeK]K(Ac)NGE-NH2 (thioether 1-6) [Ac-Cyclo-[[Abu]-QTWQC]-[Phe(4-OMe)]-[2-Nal][α-MeLys]-[Lys(Ac)]-NGE-NH2]
3,25 to 100,Ac-[Abu]QTWQC[Phe(4-OMe)][2Nal][αMeK]VNG-NH2 (thioether 1-6) [Ac-Cyclo-[[Abu]-QTWQC]-[Phe(4-OMe)]-[2-Nal]-[α-MeLys]-VNG-NH2]
4,25 to 100,Ac-[Abu]QTWQC[Phe(4-OMe)(3)][2Nal][αMeK]K(Ac)QG-NH2 (thioether 1-6) [Ac-Cyclo-[[Abu]-QTWQC]-[Phe(4-OMe)]-[2-Nal][α-MeLys]-[Lys(Ac)]-QG-NH2]
5,25 to 100,XQTWQCFWXENG (as bracketed in name; thioether cyclo) [Ac-Cyclo-[[Abu]-QTWQC]-[Phe(4-OMe)]-W-[α-MeOrn]-ENG-NH2]
